The values below come from patent US20260209363A1 (Chugai, published 2026).

Experiment [1] addresses T1, Mouse MOG (R&D system) (mouse, UniProt Q61885 29-156, limits assumed).
T1 construct: also called mouse soluble MOG; soluble MOG
T1 sequence (looked up): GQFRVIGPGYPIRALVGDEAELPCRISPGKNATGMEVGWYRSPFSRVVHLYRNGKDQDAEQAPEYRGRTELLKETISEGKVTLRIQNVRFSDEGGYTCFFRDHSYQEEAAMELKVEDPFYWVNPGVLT
The experiment is described as follows: SPR (Biacore T200), antibody captured by anti-human Fc antibody, mouse MOG as analyte, 25 degrees C, no albumin. The protocol: Binding activities of the antibodies produced in Example 10 against mouse MOG were assessed using Biacore T200 (Cytiva).
As the running buffer, 50 mM Na Phosphate (pH 7.4), 150 mM NaCl, 0.05% Tween 20, and 0.005% NaN₃ was used, and the assessment was performed at 25 degrees C. First, anti-human Fc antibody (Cytiva) was used as a ligand-capturing molecule. Anti-human Fc antibody (Cytiva) was solid-phased on a Series S Sensor Chip CM4 (Cytiva) using an Amine Coupling Kit (Cytiva). Antibody solutions prepared using the running buffer was allowed to interact with this CM4 sensor chip to capture approximately 480 RU of the antibody. Mouse MOG (R&D system) was diluted to 0, 10, 40, 160, and 640 nM with the running buffer, and then bound to the captured antibody. The chip was regenerated using 3 M MgCl₂, and measurements were performed by repeatedly capturing antibodies. Dissociation constant (KD) of the respective antibodies for mouse MOG was calculated using Biacore T200 Evaluation Software 2.0. Specifically, the association rate constant ka (L/mol/s) and the dissociation rate constant kd (1/s) were calculated by global fitting of the sensorgrams obtained by measurement with the 1:1 Langmuir binding model, and the dissociation constant KD (mol/L) was calculated from these values.

For experiment [2], the target named is T2, His-tagged mouse MOG (8536-MO, R&D Systems) (mouse, UniProt Q61885 29-156, limits assumed).
T2 construct: Bought; also called mouse soluble MOG; not shown: His tag
T2 sequence (looked up): T1 sequence (looked up)
The experiment is described as follows: Gyrolab xP immunoassay of antibody-antigen complex in C57BL/6J mouse plasma (albumin present), 2 nM antibody, 9 nM His-tagged mouse MOG. The protocol: First, to bind the albumin-binding domain to albumin in plasma, each of the anti-mouse MOG antibodies mentioned above were diluted to 8 nM using C57BL/6J mouse plasma, and then incubated at room temperature for 40 minutes. Next, for binding of the anti-mouse MOG antibody to the target antigen, one equivalent of His-tagged mouse MOG (8536-MO, R&D Systems) diluted to 38 nM in mouse plasma was added to the antibody solutions, and then the solutions were incubated at room temperature for 1 hour 25 minutes.
To detect the antibody-antigen complexes, first, the anti-delta GK antibody (AF647-anti-delta GK) was labeled using an Alexa flour 647 labeling kit (A20186, Thermo Fisher Scientific) according to the attached protocols. […] (the final concentrations were 2 nM for the antibody, 9 nM for His-tagged mouse MOG, and 67 nM for AF647-anti-delta GK).
Measurement of antigen-antibody complexes were performed using Gyrolab xP. For the measurements using Gyrolab xP, Gyrolab Bioaffy 200 (P0004180, Gyros Protein Technologies) was used as the measurement disc. Biotinylated anti-His-tagged antibody (BAM050, R&D Systems) diluted to 10 micro g/mL with PBS 0.05% Tween 20 was added to the measurement disc, and then solid-phased on the reaction layer in the disc. A mixed solution of the labeled anti-delta GK antibody, anti-mouse MOG antibody (albumin switch molecule), and mouse MOG, incubated as described above, was added to the disc, and the anti-mouse MOG antibody-mouse MOG-AF647-anti-delta GK complex was captured by the solid-phased antibody. The amount of the captured complex was detected by the fluorescence signal of AF647 (Detect PMT 25%). The fluorescence signal of AF647 was analyzed by Gyro Evaluator (version 3.6.2.30, Gyros Protein Technologies).

As usually defined, the Kd is the constant that tells how readily two partners part at equilibrium. Low readings indicate a tighter complex, high ones a looser complex. By koff is commonly meant a measure of how fast the partners let go of each other. Read a low koff as a long-lived complex. One may read the kon as the second-order rate constant of association.

B1: ABD094(H/L)-MOG//IC17 (bispecific antibody, human IgG1, kappa)
heavy 1: LAEAKEAANAELDSYGVSDFYKRLIDKAKTVEGVEALKDAILAALPRVTLRESGPTLVKPTQTLTLTCTFSGFSLSTSGVGVGWIRQPPGKALEWLALIFWDDDSHYSPSLKSRLTITKDTSKNQVVLTMTNMDPVDTATYYCARYYFGSGSYFPSYWYFDLWGRGTLVTVSSASTKGPSVFPLAPSSKSTSGGTAALGCLVEDYFPEPVTVSWNSGALTSGVHTFPAVLQSSGLYSLSSVVTVPSSSLGTQTYICNVNHKPSNTKVDERVEPKSCDKTHTCPPCPAPELRRGPSVFLFPPKPKDTLMISRTPEVTCVVVDVSHEDPEVKFNWYVDGVEVHNAKTKPREEQYNSTYRVVSVLTVLHQDWLNGKEYKCKVSNKALPAPIEKTISKAKGQPREPQVCTLPPSREEMTKNQVSLSCAVKGFYPSDIAVEWESNGQPENNYKTTPPVLDSDGSFFLVSKLTVDKSRWQQGNVFSCSVMHEALHNHYTQKSLSLSP
light 1: not shown
heavy 2: not shown
light 2: QVQLQQSGPQLVRPGASVKISCKASGYSFTSYWMHWVNQRPGQGLEWIGMIDPSYSETRLNQKFKDKATLTVDKSSSTAYMQLSSPTSEDSAVYYCALYGNYFDYWGQGTTLTVSSASVAAPSVFIFPPSDEQLKSGTASVVCLLNNFYPREAKVQWKVDNALQSGNSQESVTEQDSKDSTYSLSSTLTLSKADYEKHKVYACEVTHQGLSSPVTKSFNRGEC
notes: also called ABD094(H/L)-MOG307//IC17; anti-MOG albumin switch molecule
In experiment [1], B1 displayed a Kd of 1.91 nM, a dissociation rate constant (koff) of 1.39e-05 s⁻¹ and a kon of 7260 M⁻¹ s⁻¹. The “decrease in the signal derived from the complex, compared to MOG//IC17” value (“decrease in the signal derived” for short) in experiment [2] was 90%.

B2: ABD094(H/L).N02-MOG//IC17 (bispecific antibody, human IgG1, kappa)
heavy 1: LAEAKEAANAELDSYGVSDFYKRLIDKAKTVEGVEALKDAILAALPGGGGSRVTLRESGPTLVKPTQTLTLTCTFSGFSLSTSGVGVGWIRQPPGKALEWLALIFWDDDSHYSPSLKSRLTITKDTSKNQVVLTMTNMDPVDTATYYCARYYFGSGSYFPSYWYFDLWGRGTLVTVSSASTKGPSVFPLAPSSKSTSGGTAALGCLVEDYFPEPVTVSWNSGALTSGVHTFPAVLQSSGLYSLSSVVTVPSSSLGTQTYICNVNHKPSNTKVDERVEPKSCDKTHTCPPCPAPELRRGPSVFLFPPKPKDTLMISRTPEVTCVVVDVSHEDPEVKFNWYVDGVEVHNAKTKPREEQYNSTYRVVSVLTVLHQDWLNGKEYKCKVSNKALPAPIEKTISKAKGQPREPQVCTLPPSREEMTKNQVSLSCAVKGFYPSDIAVEWESNGQPENNYKTTPPVLDSDGSFFLVSKLTVDKSRWQQGNVFSCSVMHEALHNHYTQKSLSLSP
light 1: not shown
heavy 2: not shown
light 2: B1 light 2
notes: ABD094 linked via N02 linker at VH and VL N-termini of the MOG arm; also called ABD094.N02(H/L)-MOG//IC17
In experiment [1], B2 registered a dissociation constant (Kd) of 0.0607 nM, a koff of 3.46e-07 s⁻¹ and a kon of 5700 M⁻¹ s⁻¹. In addition, the “decrease in the signal derived” value in experiment [2] turned out to be 79%.

B3: ABD094(H/L).N10-MOG//IC17 (bispecific antibody, human IgG1, kappa)
heavy 1: LAEAKEAANAELDSYGVSDFYKRLIDKAKTVEGVEALKDAILAALPGRVTLRESGPTLVKPTQTLTLTCTFSGFSLSTSGVGVGWIRQPPGKALEWLALIFWDDDSHYSPSLKSRLTITKDTSKNQVVLTMTNMDPVDTATYYCARYYFGSGSYFPSYWYFDLWGRGTLVTVSSASTKGPSVFPLAPSSKSTSGGTAALGCLVEDYFPEPVTVSWNSGALTSGVHTFPAVLQSSGLYSLSSVVTVPSSSLGTQTYICNVNHKPSNTKVDERVEPKSCDKTHTCPPCPAPELRRGPSVFLFPPKPKDTLMISRTPEVTCVVVDVSHEDPEVKFNWYVDGVEVHNAKTKPREEQYNSTYRVVSVLTVLHQDWLNGKEYKCKVSNKALPAPIEKTISKAKGQPREPQVCTLPPSREEMTKNQVSLSCAVKGFYPSDIAVEWESNGQPENNYKTTPPVLDSDGSFFLVSKLTVDKSRWQQGNVFSCSVMHEALHNHYTQKSLSLSP
light 1: not shown
heavy 2: not shown
light 2: B1 light 2
notes: ABD094 linked via N10 linker (G) at VH and VL N-termini of the MOG arm; also called ABD094.N10(H/L)-MOG//IC17; ABD094(H/L).N10-MOG307//IC17
In experiment [1], B3 returned a Kd of 5.53 nM, a koff of 9.46e-06 s⁻¹ and a kon of 1710 M⁻¹ s⁻¹. The “decrease in the signal derived” value in experiment [2] is 83%.
